Assay results from patent US20210147504A1 (Bayer, published 2021).
Values joined by “and” are separate entries in the source; they are usually repeats but may differ in a detail not shown here. Equal values may be shown once. Each block holds one binder with its values, some of them ahead of it.

Legend:
human NPRA [1] = molecular target: T1, human NPRA (human, UniProt P16066 33-1061); experiment: cell-based or functional assay
T1 sequence (looked up): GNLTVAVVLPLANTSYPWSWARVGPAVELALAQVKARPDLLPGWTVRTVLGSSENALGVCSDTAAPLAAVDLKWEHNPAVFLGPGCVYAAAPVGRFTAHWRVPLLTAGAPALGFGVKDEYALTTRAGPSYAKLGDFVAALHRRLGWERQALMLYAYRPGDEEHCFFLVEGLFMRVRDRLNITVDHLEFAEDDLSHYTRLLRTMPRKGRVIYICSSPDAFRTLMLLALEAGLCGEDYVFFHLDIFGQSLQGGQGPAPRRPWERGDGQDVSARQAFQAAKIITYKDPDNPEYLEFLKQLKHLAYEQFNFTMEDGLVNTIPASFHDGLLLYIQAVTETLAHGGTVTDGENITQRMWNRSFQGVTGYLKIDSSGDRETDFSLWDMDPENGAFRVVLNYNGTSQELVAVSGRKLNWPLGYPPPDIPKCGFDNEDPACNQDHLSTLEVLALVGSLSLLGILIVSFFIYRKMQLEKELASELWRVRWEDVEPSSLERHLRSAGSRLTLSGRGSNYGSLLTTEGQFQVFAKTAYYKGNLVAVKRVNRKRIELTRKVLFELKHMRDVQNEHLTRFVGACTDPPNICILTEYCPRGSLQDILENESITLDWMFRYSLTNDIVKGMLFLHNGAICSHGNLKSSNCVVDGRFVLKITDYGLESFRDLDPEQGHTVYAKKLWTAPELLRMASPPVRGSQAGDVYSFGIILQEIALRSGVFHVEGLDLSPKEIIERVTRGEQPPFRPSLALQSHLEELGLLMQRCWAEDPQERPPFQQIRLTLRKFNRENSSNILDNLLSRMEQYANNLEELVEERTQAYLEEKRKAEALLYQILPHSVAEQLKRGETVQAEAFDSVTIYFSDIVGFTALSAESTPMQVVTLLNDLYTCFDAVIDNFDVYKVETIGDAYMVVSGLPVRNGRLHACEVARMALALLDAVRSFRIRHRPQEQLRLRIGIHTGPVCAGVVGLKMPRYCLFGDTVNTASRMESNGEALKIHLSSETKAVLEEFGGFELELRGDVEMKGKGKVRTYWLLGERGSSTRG

human NPRA [2] = molecular target: T2, human NPRA (human, UniProt P16066 33-1061); experiment: cell-based or functional assay; remark: listed apart in the source
T2 sequence (looked up): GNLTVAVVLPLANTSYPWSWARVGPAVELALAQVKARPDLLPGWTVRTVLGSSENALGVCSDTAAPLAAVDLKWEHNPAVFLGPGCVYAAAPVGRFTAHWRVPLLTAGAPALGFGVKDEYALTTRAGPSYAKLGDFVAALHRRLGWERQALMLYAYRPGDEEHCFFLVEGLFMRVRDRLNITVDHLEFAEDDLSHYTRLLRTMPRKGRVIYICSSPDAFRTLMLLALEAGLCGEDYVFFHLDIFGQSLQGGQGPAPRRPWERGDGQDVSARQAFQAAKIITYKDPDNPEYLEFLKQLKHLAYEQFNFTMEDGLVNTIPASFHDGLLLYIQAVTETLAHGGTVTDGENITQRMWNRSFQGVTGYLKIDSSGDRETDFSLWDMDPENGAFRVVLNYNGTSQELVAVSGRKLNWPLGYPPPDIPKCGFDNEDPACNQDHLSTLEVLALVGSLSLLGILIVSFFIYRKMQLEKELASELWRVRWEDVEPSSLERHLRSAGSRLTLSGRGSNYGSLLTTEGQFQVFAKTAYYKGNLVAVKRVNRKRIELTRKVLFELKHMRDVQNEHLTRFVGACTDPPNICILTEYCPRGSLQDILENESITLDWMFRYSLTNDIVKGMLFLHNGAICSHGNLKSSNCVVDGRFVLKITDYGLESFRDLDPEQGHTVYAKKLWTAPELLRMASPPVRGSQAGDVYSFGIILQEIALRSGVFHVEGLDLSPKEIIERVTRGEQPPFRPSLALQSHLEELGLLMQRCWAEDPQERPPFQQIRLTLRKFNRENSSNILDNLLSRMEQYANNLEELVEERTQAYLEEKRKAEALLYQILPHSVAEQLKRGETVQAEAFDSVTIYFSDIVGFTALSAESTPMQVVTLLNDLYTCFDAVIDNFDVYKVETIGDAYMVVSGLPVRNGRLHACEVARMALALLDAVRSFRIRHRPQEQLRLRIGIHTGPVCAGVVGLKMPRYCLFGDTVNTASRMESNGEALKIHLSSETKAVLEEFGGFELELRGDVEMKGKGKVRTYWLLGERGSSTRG

- activity rcs (human NPRA [1]): 71%
- average rel logEC50 (human NPRA [1]): -0.1 log vs TPP-5661
- rel. logEC50 pcs 2 (human NPRA [1]): -0.3 log vs TPP-5661
- rel. logEC50 pcs 3 (human NPRA [1]): -0.2 log vs TPP-5661
- rel. logEC50 pcs 7 (human NPRA [1]): 0 log vs TPP-5661
B1: TPP-10274 (antibody)
heavy: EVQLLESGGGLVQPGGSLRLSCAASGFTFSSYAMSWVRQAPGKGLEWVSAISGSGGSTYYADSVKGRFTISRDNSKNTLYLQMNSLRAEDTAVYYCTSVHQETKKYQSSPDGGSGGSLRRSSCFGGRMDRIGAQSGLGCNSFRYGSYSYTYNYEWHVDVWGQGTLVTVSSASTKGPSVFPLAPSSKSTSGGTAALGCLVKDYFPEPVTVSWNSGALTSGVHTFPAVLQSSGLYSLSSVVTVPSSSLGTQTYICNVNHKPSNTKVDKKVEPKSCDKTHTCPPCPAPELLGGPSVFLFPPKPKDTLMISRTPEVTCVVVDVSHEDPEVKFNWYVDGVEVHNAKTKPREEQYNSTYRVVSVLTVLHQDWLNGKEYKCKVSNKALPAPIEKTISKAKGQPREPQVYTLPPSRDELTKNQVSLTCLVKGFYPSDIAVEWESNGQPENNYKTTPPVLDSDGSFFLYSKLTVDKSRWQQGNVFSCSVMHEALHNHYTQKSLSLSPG
light: QSVLTQPPSVSGAPGQRVTISCTGSSSNIGAGYDVHWYQQLPGTAPKLLIYGNSNRPSGVPDRFSGSKSGTSASLAITGLQAEDEADYYCQSYDSSLSGVVFGGGTKLTVLGQPKAAPSVTLFPPSSEELQANKATLVCLISDFYPGAVTVAWKADSSPVKAGVETTTPSKQSNNKYAASSYLSLTPEQWKSHRSYSCQVTHEGSTVEKTVAPTECS

- activity rcs (human NPRA [1]): 30%
- average rel logEC50 (human NPRA [1]): 0.1 log vs TPP-5661
- rel. activity rcs (human NPRA [1]): 0.3 log vs TPP-5661
- rel. logEC50 pcs 1 (human NPRA [1]): 0.3 log vs TPP-5661
- rel. logEC50 pcs 2 (human NPRA [1]): -0.2 log vs TPP-5661
- rel. logEC50 pcs 4 (human NPRA [1]): 0.1 log vs TPP-5661
- rel. logEC50 pcs 5 (human NPRA [1]): 0.2 log vs TPP-5661
B2: TPP-10282 (antibody, human IgG1, lambda)
heavy: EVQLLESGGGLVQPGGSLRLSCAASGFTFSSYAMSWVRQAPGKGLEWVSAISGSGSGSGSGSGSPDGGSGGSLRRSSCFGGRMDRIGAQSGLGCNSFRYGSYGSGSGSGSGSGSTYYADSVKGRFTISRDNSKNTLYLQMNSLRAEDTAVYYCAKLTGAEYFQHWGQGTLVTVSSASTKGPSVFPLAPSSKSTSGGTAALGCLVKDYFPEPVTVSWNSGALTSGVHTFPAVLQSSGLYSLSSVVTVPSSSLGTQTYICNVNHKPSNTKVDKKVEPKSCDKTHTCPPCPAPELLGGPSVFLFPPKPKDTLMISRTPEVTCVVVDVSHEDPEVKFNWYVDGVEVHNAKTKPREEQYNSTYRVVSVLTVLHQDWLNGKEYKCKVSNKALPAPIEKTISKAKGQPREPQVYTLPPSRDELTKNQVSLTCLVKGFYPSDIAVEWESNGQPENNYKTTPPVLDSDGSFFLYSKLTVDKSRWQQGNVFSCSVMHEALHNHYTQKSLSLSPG
light: QSVLTQPPSVSGAPGQRVTISCTGSSSNIGAGYDVHWYQQLPGTAPKLLIYGNSNRPSGVPDRFSGSKSGTSASLAITGLQAEDEADYYCQSYDSSLSGVVFGGGTKLTVLGQPKAAPSVTLFPPSSEELQANKATLVCLISDFYPGAVTVAWKADSSPVKAGVETTTPSKQSNNKYAASSYLSLTPEQWKSHRSYSCQVTHEGSTVEKTVAPTECS

- average rel logEC50 (human NPRA [2]): -0.3 log vs TPP-5661
- rel. logEC50 pcs 9 (human NPRA [2]): -0.3 log vs TPP-5661
B3: TPP-13230 (antibody)
heavy: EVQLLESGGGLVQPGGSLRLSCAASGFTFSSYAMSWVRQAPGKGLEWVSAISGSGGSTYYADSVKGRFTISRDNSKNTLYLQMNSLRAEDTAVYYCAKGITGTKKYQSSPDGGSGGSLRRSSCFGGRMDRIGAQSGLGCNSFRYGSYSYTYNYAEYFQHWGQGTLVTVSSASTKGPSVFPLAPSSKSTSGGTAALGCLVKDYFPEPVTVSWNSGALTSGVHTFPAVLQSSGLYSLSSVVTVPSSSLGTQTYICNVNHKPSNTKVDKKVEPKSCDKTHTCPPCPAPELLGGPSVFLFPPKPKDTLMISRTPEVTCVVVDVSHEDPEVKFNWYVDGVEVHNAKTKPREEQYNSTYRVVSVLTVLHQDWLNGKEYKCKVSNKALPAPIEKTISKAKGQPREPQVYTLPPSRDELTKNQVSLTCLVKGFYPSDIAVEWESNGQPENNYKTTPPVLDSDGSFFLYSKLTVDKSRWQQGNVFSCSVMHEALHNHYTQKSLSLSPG
light: QSVLTQPPSVSGAPGQRVTISCTGSSSNIGAGYDVHWYQQLPGTAPKLLIYGNSNRPSGVPDRFSGSKSGTSASLAITGLQAEDEADYYCQSYDSSLSGVVFGGGTKLTVLGQPKAAPSVTLFPPSSEELQANKATLVCLISDFYPGAVTVAWKADSSPVKAGVETTTPSKQSNNKYAASSYLSLTPEQWKSHRSYSCQVTHEGSTVEKTVAPTECS

- activity rcs (human NPRA [2]): 36%
- average rel logEC50 (human NPRA [2]): 0 log vs TPP-5661
- rel. activity rcs (human NPRA [2]): 0 log vs TPP-5661
- rel. logEC50* pcs (human NPRA [2]): 0 log vs TPP-5661
- rel. logEC50 ics (human NPRA [2]): 0 log vs TPP-5661
- rel. logEC50 pcs 1 (human NPRA [2]): 0 log vs TPP-5661
- rel. logEC50 pcs 2 (human NPRA [2]): 0 log vs TPP-5661
- rel. logEC50 pcs 3 (human NPRA [2]): 0 log vs TPP-5661
- rel. logEC50 pcs 4 (human NPRA [2]): 0 log vs TPP-5661
- rel. logEC50 pcs 5 (human NPRA [2]): 0 log vs TPP-5661
- rel. logEC50 pcs 6 (human NPRA [2]): 0 log vs TPP-5661
- rel. logEC50 pcs 7 (human NPRA [2]): 0 log vs TPP-5661
- rel. logEC50 pcs 8 (human NPRA [2]): 0 log vs TPP-5661
- rel. logEC50 pcs 9 (human NPRA [2]): 0 log vs TPP-5661
B4: TPP-5661 (antibody)
heavy: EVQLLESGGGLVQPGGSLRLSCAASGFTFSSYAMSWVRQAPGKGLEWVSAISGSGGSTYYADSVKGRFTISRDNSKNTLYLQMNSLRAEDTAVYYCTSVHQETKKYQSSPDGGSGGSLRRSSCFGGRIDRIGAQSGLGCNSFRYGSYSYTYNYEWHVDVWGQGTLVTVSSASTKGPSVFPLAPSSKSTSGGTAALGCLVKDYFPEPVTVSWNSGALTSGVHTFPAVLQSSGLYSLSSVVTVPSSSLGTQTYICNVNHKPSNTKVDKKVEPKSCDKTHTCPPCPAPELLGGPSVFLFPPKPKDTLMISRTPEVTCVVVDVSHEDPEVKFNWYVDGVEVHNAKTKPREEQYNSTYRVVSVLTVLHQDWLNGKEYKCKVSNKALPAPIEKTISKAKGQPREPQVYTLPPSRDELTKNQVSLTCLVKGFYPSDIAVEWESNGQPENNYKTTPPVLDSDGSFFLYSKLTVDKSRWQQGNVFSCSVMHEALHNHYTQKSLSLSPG
light: QSVLTQPPSVSGAPGQRVTISCTGSSSNIGAGYDVHWYQQLPGTAPKLLIYGNSNRPSGVPDRFSGSKSGTSASLAITGLQAEDEADYYCQSYDSSLSGVVFGGGTKLTVLGQPKAAPSVTLFPPSSEELQANKATLVCLISDFYPGAVTVAWKADSSPVKAGVETTTPSKQSNNKYAASSYLSLTPEQWKSHRSYSCQVTHEGSTVEKTVAPTECS

- average rel logEC50 (human NPRA [1]): -0.8 log vs TPP-5661
- rel. logEC50* pcs (human NPRA [1]): -0.7 log vs TPP-5661 and -0.8 log vs TPP-5661
B5: TPP-13054 (antibody, human IgG1, lambda)
heavy: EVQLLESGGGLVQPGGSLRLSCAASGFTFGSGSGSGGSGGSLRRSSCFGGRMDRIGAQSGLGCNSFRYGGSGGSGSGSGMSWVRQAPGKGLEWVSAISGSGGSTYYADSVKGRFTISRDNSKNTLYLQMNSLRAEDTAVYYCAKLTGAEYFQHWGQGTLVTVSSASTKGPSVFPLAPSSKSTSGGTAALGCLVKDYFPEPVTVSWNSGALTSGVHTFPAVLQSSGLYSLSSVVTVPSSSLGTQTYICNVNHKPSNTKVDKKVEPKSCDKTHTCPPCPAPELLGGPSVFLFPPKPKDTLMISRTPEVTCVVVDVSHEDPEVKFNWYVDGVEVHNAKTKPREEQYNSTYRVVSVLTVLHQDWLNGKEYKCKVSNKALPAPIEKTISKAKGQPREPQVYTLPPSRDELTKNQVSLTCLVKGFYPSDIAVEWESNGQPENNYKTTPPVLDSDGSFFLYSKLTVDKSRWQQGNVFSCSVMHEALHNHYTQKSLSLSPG
light: QSVLTQPPSVSGAPGQRVTISCTGSSSNIGAGYDVHWYQQLPGTAPKLLIYGNSNRPSGVPDRFSGSKSGTSASLAITGLQAEDEADYYCQSYDSSLSGVVFGGGTKLTVLGQPKAAPSVTLFPPSSEELQANKATLVCLISDFYPGAVTVAWKADSSPVKAGVETTTPSKQSNNKYAASSYLSLTPEQWKSHRSYSCQVTHEGSTVEKTVAPTECS

- activity rcs (human NPRA [1]): 83%
- average rel logEC50 (human NPRA [1]): -0.8 log vs TPP-5661
- rel. activity rcs (human NPRA [1]): -0.8 log vs TPP-5661
- rel. logEC50 pcs 5 (human NPRA [1]): -0.8 log vs TPP-5661
B6: TPP-10283 (antibody, human IgG1, lambda)
heavy: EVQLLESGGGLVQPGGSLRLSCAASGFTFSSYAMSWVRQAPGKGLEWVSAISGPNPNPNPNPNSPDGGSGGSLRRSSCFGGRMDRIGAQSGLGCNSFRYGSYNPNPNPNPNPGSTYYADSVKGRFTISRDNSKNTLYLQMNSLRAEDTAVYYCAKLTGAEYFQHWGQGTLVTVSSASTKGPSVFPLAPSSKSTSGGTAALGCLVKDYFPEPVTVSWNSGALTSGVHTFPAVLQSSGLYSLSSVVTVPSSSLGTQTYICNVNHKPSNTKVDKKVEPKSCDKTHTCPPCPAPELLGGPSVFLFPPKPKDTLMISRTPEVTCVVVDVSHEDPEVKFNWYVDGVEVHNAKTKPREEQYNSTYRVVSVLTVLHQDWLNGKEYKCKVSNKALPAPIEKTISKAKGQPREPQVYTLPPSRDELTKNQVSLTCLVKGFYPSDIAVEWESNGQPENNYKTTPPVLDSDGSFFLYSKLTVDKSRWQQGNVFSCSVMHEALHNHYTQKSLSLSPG
light: QSVLTQPPSVSGAPGQRVTISCTGSSSNIGAGYDVHWYQQLPGTAPKLLIYGNSNRPSGVPDRFSGSKSGTSASLAITGLQAEDEADYYCQSYDSSLSGVVFGGGTKLTVLGQPKAAPSVTLFPPSSEELQANKATLVCLISDFYPGAVTVAWKADSSPVKAGVETTTPSKQSNNKYAASSYLSLTPEQWKSHRSYSCQVTHEGSTVEKTVAPTECS

- activity rcs (human NPRA [1]): 72%
- average rel logEC50 (human NPRA [1]): -0.4 log vs TPP-5661
- rel. activity rcs (human NPRA [1]): -0.9 log vs TPP-5661
- rel. logEC50 pcs 5 (human NPRA [1]): -0.9 log vs TPP-5661
- rel. logEC50 pcs 6 (human NPRA [1]): -0.4 log vs TPP-5661
- rel. logEC50 pcs 7 (human NPRA [1]): 0.2 log vs TPP-5661
B7: TPP-10765 (antibody, human IgG1, lambda)
heavy: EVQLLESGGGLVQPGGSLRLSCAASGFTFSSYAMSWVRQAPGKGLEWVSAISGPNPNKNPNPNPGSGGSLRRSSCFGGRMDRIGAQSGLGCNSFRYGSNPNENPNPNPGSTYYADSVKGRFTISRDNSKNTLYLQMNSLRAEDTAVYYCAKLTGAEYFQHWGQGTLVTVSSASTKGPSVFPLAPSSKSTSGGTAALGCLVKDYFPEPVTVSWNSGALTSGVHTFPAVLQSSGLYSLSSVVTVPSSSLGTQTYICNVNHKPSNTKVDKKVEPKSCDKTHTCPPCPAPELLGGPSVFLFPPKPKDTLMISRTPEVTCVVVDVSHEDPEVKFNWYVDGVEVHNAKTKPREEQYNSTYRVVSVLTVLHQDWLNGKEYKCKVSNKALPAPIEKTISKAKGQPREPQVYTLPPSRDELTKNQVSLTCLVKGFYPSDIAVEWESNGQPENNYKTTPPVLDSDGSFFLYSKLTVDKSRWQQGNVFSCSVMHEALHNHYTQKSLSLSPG
light: QSVLTQPPSVSGAPGQRVTISCTGSSSNIGAGYDVHWYQQLPGTAPKLLIYGNSNRPSGVPDRFSGSKSGTSASLAITGLQAEDEADYYCQSYDSSLSGVVFGGGTKLTVLGQPKAAPSVTLFPPSSEELQANKATLVCLISDFYPGAVTVAWKADSSPVKAGVETTTPSKQSNNKYAASSYLSLTPEQWKSHRSYSCQVTHEGSTVEKTVAPTECS
